Here are results for one protein from FireProtDB (doi:10.1002/pro.5560040106).

The conditions of the data set: Bacillus subtilis (strain 168), pH 7, Urea, CD, Potassium phosphate 10 mM, reversible: yes, whole UniProt chain shown.

B1: Phosphocarrier protein HPr wild type, P08877 (protein)
chain: MAQKTFKVTADSGIHARPATVLVQTASKYDADVNLEYNGKTVNLKSIMGVMSLGIAKGAEITISASGADENDALNALEETMKSEGLGE
As to B1, the denaturant m value (10 °C) worked out at 1.04 kcal/mol/M; the denaturant m value (15 °C) came out at 1.06 kcal/mol/M; the denaturant m value (25 °C) was 1.08 kcal/mol/M; the denaturant m value (35 °C) stood at 1.05 kcal/mol/M; the denaturant m value (40 °C) was determined as 1.04 kcal/mol/M. Also, the “denaturant midpoint (higher = more stable)” value is, setting by setting: (10 °C) 3.32 M; (15 °C) 3.52 M; (25 °C) 3.9 M; (35 °C) 3.77 M; (40 °C) 3.64 M. For the same protein, the unfolding free energy is 3.45 kcal/mol (10 °C); 3.73 kcal/mol (15 °C); 4.21 kcal/mol (25 °C); 3.96 kcal/mol (35 °C); 3.79 kcal/mol (40 °C).
